Experimental findings from article PMC5523955 are described below.

The target of the assay is NCP^H2AK15ub (nucleosome core particle with linked H2A-H2B enzymatically ubiquitylated at H2A Lys15) (human) (UniProt P0CG47). Put plainly: ITC.

By Kd is commonly meant the equilibrium constant for the complex coming apart. In the case of “RAD18 (aa 198-240) (from UniProt Q9NS91 198-240) (domain or fragment)”, the Kd was 25.2 nM.
